Blank lines part the entries; values can stand above or below the binder they belong to.
B6: Csn12, full length, untagged (natural protein, S. cerevisiae, UniProt P47130 1-423, looked up)
chain: MDVDIGCYFEEKRYDDKLLDFIRYDVKTPKKTKYILQRPTATDEESVRLQRFYQLGVDLKLKYSKRRSLKKQGRIKNATEELLRLANEQLKLFNRIVERETNWIIYPLWVMAKQLIRLANESSELNKDSIEECGRTIHRSFTICLNDRNPRLNENKKIGCYMFANLEFSIYHRLSNKDMIKNLVKVLESRVNARDIPPLNKSLAMEHKSQVVLYNYYLGQYYGCLENDHERGFFHLNEALLQCPMLYVESTGKFVLQGQMEKIMILLVPLALLTKRLYPHWDHPVIAGVITRSKRLSQVYPTLVRSVISGNLSLYEATAASHERFFLSQGLHVVITLLREVVFTRLVQRCWQWGNDRKSIMPLKILLATKQHDSSANEDEEEQLDALECRLASAIASGLLRAYLSHSNRCIVFSKKEPFPHSK
notes: Csn12, S. cerevisiae, full length, residues 1-423; untagged Csn12 from pET-22b (with His8-GST-Thp3) or from the first MCS of pETDuet-1 (with Sem1 and His8-GST-Thp3); 7EWF is the selenomethionine form; source: E. coli Rosetta (DE3), co-expressed; in cleared lysate (pull-down) and purified in the ternary complex (Ni-NTA, gel filtration, cation exchange)

How the values were obtained:
Thp3;Csn12;Sem1 = biological target: T1, Thp3;Csn12;Sem1 (Saccharomyces cerevisiae;Saccharomyces …, UniProt Q12049;P47130;O94742 1-470;1-423;1-89, ||); experiment: fluorescence polarization; FP: 20 mM Tris-HCl pH 8.0, 150 mM NaCl, 2 mM MgCl2, 25 C; 50 nM 5'-FAM probe, protein 0-25.6 uM, 30 min; details: protein: recombinant;recombinant;recombinant, tags: 8xHis-GST N-terminal, removed by TEV;none;none, copies: 1;1;1, label: 5' FAM
T1 sequence 1: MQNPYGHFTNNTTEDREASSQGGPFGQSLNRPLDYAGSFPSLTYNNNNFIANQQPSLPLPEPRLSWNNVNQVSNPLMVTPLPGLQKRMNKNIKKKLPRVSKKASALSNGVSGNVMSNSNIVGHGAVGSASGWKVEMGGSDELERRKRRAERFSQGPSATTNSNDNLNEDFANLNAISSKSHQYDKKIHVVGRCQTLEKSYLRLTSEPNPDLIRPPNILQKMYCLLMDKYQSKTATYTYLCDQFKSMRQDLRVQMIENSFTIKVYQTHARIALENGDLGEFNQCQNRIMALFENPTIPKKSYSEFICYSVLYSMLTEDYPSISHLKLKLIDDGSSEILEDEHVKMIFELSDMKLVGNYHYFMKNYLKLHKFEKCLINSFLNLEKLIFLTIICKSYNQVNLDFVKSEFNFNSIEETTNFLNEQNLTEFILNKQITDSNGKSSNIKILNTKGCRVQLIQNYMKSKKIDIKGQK
T1 sequence 2: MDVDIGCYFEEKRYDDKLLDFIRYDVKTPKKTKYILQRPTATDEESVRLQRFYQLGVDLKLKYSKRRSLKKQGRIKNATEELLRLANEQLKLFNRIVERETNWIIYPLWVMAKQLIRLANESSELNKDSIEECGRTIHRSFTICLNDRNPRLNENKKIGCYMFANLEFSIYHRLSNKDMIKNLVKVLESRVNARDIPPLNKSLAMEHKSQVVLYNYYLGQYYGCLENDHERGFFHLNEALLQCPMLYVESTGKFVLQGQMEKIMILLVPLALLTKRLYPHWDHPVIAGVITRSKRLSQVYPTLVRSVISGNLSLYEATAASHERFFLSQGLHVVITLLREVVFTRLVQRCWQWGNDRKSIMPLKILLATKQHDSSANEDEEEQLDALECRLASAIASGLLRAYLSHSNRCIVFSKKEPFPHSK
T1 sequence 3: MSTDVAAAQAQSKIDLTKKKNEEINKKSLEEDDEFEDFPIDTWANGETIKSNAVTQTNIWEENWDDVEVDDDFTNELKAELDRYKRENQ

[1] = biological target: T2, Csn12 (binary complex);Sem1 (Saccharomyces cerevisiae;Saccharomyces …, UniProt P47130;O94742 1-423;1-89, |); experiment: as above; details: protein: recombinant;recombinant; tags: 6xHis;none; copies: 1;1; label: 5' FAM
T2 sequence 1: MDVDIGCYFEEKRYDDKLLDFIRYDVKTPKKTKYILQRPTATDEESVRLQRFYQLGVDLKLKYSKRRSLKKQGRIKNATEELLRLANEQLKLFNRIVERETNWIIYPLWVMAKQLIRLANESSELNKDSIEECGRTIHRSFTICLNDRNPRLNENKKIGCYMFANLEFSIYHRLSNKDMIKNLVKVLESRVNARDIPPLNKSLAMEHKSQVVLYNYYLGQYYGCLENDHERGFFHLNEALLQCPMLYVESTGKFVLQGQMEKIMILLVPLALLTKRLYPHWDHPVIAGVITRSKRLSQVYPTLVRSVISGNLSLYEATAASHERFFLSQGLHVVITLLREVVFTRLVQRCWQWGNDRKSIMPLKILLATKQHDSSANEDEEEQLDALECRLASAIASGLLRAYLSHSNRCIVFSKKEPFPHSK
T2 sequence 2: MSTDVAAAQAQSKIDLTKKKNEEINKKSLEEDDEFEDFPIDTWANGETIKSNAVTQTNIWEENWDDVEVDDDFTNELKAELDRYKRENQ

[2] = biological target: B6; experiment: crystal structure + SEC; single copy of the ternary complex in the asymmetric unit; ratio said to be consistent with the gel filtration result; details: both partners purified
[3] = biological target: T3, Thp3;Csn12 K415E/K416E;Sem1 (Saccharomyces cerevisiae;Saccharomyces …, UniProt Q12049;P47130;O94742 1-470;1-423;1-89, |K415E;K416E|); experiment: fluorescence polarization; FP: 20 mM Tris-HCl pH 8.0, 150 mM NaCl, 2 mM MgCl2, 25 C; 50 nM 5'-FAM probe, protein 0-25.6 uM, 30 min; details: protein: recombinant;recombinant;recombinant; tags: 8xHis-GST N-terminal, removed by TEV;none;none; copies: 1;1;1; label: 5' FAM
T3 sequence 1: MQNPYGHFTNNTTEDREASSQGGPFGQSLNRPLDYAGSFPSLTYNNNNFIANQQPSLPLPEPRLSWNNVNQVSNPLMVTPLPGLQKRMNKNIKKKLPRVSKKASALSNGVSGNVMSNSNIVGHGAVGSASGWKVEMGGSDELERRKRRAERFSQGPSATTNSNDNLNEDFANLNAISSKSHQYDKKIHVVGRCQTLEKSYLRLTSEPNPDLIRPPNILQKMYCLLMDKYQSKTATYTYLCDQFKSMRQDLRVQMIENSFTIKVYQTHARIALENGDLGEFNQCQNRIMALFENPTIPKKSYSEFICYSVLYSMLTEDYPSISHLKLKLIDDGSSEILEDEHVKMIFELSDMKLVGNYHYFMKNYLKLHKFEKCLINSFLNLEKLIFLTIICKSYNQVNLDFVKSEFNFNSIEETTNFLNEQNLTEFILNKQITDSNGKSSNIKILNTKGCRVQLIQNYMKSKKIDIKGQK
T3 sequence 2: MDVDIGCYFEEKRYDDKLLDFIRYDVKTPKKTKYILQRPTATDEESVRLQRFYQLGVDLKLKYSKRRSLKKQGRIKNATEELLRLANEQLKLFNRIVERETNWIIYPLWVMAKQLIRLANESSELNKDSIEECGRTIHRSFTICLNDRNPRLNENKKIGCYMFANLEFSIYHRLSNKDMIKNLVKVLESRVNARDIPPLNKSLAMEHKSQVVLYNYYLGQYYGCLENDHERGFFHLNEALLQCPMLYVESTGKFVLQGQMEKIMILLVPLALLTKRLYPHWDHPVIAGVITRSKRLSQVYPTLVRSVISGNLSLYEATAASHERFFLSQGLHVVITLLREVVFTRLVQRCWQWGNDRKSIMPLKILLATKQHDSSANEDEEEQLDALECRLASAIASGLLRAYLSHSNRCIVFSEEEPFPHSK
T3 sequence 3: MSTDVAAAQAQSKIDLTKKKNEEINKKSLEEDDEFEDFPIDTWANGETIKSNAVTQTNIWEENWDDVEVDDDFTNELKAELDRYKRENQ

Thp3;Csn12 R401E;Sem1 = biological target: T4, Thp3;Csn12 R401E;Sem1 (Saccharomyces cerevisiae;Saccharomyces …, UniProt Q12049;P47130;O94742 1-470;1-423;1-89, |R401E|); experiment: as above; details: protein: recombinant;recombinant;recombinant; tags: 8xHis-GST N-terminal, removed by TEV;none;none; copies: 1;1;1; label: 5' FAM
T4 sequence 1: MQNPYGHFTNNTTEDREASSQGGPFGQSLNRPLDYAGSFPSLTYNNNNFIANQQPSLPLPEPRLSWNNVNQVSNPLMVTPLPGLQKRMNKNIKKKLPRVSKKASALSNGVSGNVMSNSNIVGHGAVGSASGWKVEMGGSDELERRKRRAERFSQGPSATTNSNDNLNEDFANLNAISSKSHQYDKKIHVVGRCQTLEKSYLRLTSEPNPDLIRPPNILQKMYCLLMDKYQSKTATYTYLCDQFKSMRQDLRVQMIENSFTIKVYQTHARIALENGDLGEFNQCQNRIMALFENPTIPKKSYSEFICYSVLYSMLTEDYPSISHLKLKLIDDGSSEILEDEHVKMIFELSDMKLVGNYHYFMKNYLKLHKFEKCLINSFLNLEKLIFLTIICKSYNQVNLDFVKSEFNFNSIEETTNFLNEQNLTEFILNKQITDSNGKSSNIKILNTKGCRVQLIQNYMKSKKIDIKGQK
T4 sequence 2: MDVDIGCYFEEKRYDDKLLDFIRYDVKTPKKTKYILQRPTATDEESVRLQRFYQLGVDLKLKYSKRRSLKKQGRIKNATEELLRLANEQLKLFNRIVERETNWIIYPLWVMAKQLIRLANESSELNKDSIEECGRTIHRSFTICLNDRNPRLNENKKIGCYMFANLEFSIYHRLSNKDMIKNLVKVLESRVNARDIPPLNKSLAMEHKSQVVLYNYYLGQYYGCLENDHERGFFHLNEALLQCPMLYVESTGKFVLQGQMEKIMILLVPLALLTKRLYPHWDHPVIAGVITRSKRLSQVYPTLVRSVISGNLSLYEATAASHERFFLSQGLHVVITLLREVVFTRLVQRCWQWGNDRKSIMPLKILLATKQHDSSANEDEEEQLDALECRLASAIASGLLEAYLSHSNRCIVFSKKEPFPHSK
T4 sequence 3: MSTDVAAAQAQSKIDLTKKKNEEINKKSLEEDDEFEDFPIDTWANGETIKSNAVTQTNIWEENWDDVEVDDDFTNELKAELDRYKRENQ

[4] = biological target: T5, Thp3 (186–470), truncated Thp3 (S. cerevisiae, UniProt Q12049 186-470); experiment: crystal structure + SEC; single copy of the ternary complex in the asymmetric unit; ratio said to be consistent with the gel filtration result; details: both partners purified
T5 construct: Thp3 (Ypr045c), S. cerevisiae, residues 186-470 (HD and WH domains); 8×His-GST tag removed with TEV protease; also called truncated Thp3 (residues 186–470); not shown: His8, N-terminal, cleaved; GST, N-terminal, cleaved
T5 sequence (looked up): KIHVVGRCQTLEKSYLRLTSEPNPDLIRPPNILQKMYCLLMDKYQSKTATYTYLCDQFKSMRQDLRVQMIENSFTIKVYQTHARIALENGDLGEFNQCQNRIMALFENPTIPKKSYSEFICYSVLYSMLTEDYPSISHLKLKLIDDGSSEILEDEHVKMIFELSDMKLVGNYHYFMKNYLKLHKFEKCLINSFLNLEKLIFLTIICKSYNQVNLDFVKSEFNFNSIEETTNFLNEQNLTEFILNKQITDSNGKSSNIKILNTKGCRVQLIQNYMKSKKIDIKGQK

B1: T-rich ssDNA 25 (ssDNA)
DNA: TTTTATTTTATTTTTATTTTATTTT
Kd (Thp3;Csn12;Sem1): 2.9 µM
Kd [1]: 33.8 µM

stoichiometry N [2]: 1
B2: Sem1, full length, untagged (natural protein, S. cerevisiae, UniProt O94742 1-89, looked up)
chain: MSTDVAAAQAQSKIDLTKKKNEEINKKSLEEDDEFEDFPIDTWANGETIKSNAVTQTNIWEENWDDVEVDDDFTNELKAELDRYKRENQ
notes: Sem1, S. cerevisiae, full length, residues 1-89; second MCS of pETDuet-1; source: E. coli Rosetta (DE3), co-expressed; in cleared lysate (pull-down) and purified in the ternary complex (Ni-NTA, gel filtration, cation exchange)

B3: T-rich dsDNA 20 (dsDNA)
DNA 1: TTTTATTTTATTTTTATTTT
DNA 2: AAAATAAAAATAAAATAAAA
Kd (Thp3;Csn12;Sem1; blunt): 1.1 µM

B4: T-rich ssDNA 20 (ssDNA)
DNA: TTTTATTTTATTTTTATTTT
Kd (Thp3;Csn12;Sem1): 3.7 µM
binding result [3]: no binding
binding result (Thp3;Csn12 R401E;Sem1): no binding

B5: AU-repeat ssRNA 25 (ssRNA)
RNA: AUAUAUAUAUAUAUAUAUAUAUAUA
Kd (Thp3;Csn12;Sem1): 1.6 µM

Binder: B6
stoichiometry N [4]: 1

B7: AU-repeat ssRNA 20 (ssRNA)
RNA: AUAUAUAUAUAUAUAUAUAU
Kd (Thp3;Csn12;Sem1): 4.5 µM
